Assay results taken from patent US20200339680A1.

What was measured:
mouse TMEM106B (mouse) = mouse TMEM106B (mouse) (UniProt Q80X71); experiment: FACS Neuro2a
human TMEM106B (human) [1] = molecular target: human TMEM106B (human) (UniProt Q9NUM4); experiment: FACS HeLa
human TMEM106B (human) [2] = molecular target: human TMEM106B (human) (UniProt Q9NUM4); experiment: FACS U251
human TMEM106B (human) [3] = molecular target: human TMEM106B (human) (UniProt Q9NUM4); experiment: FACS A549

MFI (mouse TMEM106B (mouse)) [MFI] | MFI (human TMEM106B (human) [1]) [MFI] | MFI (human TMEM106B (human) [2]) [MFI] | MFI (human TMEM106B (human) [3]) [MFI] | Substance
220 | 152 | 165 | 148 | Negative ctrl #1 (antibody)
216 | 143 | 164 | 95 | Negative ctrl #3 (antibody)
235 | 149 | 165 | 162 | Negative ctrl #2 (antibody)
